Test [1] concerns the target T1, FcγRIIb (human, UniProt P31994 43-217, limits assumed).
T1 construct: also called FcgRIIb; FcγIIB
T1 sequence: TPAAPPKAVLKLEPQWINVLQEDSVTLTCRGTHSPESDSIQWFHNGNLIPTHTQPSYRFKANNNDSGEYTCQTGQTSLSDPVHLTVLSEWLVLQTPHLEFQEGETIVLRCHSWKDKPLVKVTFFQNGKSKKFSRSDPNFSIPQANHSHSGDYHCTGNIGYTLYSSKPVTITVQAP
The experiment in a line: SPR (Biacore); KD for FcγRIIaH divided by KD for FcγRIIb of the same antibody. In general terms: SPR reads the build-up and loss of mass on a sensor chip optically.
Source text: Furthermore, KD(IIaR)/KD(IIb) and KD(IIaH)/KD(IIb) in the table respectively represent the value obtained by dividing the KD value of each variant for FcγRIIaR by the KD value of each variant for FcγRIIb, and the value obtained by dividing the KD value of each variant for FcγRIIaH by the KD value of each variant for FcγRIIb.

The target in test [2] is T1, FcγRIIb. Briefly: SPR (Biacore), KD of IL6R-B3/IL6R-L divided by KD of the variant.
Source text: Furthermore, KD(IIaR)/KD(IIb) and KD(IIaH)/KD(IIb) in the table respectively represent the value obtained by dividing the KD value of each variant for FcγRIIaR by the KD value of each variant for FcγRIIb, and the value obtained by dividing the KD value of each variant for FcγRIIaH by the KD value of each variant for FcγRIIb. KD(IIb) of the parent polypeptide/KD(IIb) of the altered polypeptide refers to the value obtained by dividing the KD value of the parent polypeptide for FcγRIIb by the KD value of each variant for FcγRIIb.
Test [3] deals with T1, FcγRIIb. Briefly: SPR (Biacore), FcγR over captured antibody.
The target of a further test is T2, FcγRIIa type R (human, UniProt P12318 36-217).
T2 construct: also called FcγRIIaR; FcgRIIaR
T2 chain: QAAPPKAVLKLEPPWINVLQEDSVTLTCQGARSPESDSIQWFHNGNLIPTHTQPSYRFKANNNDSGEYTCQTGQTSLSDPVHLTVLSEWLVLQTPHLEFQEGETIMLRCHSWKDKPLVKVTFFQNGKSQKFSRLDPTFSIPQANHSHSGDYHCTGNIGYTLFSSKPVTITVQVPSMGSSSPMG
Briefly: SPR (Biacore), FcγR over captured antibody.

The next test deals with T3, FcγRIIIa type V (human, UniProt P08637 17-208, limits assumed).
T3 construct: also called FcγRIIIaV; FcgRIIIaV
Briefly: SPR (Biacore), FcγR over captured antibody.

For the next test, the target named is T4, FcγRIIa type H (human, UniProt P12318 36-217).
T4 construct: also called FcγRIIaH; FcγRIIH
T4 sequence: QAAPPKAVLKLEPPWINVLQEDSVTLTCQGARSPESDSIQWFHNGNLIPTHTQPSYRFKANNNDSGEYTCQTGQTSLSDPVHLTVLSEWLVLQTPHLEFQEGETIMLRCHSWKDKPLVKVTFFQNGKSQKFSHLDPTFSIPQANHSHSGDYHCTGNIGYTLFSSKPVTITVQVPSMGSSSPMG
Briefly: SPR (Biacore), FcγR over captured antibody.

The next test has as its target T5, FcγRIa (human, UniProt P12314 16-292, limits assumed).
T5 construct: also called FcgRIa; CD64
The experiment in a line: SPR (Biacore), FcγR over captured antibody.

Test [4] deals with T1, FcγRIIb. Briefly: SPR (Biacore); KD for FcγRIIaR divided by KD for FcγRIIb of the same antibody.

The Kd is the constant that tells how readily two partners part at equilibrium. A lower Kd goes with higher affinity.

T3 sequence (P08637 other isoform, or with tags, fused parts or gaps limits assumed): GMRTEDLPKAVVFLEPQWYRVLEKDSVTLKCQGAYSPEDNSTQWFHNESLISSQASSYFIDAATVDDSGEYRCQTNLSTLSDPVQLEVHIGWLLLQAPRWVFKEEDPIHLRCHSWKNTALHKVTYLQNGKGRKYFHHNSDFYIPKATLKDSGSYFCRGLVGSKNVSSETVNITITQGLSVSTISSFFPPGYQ
T5 sequence (P12314 16-292 limits assumed): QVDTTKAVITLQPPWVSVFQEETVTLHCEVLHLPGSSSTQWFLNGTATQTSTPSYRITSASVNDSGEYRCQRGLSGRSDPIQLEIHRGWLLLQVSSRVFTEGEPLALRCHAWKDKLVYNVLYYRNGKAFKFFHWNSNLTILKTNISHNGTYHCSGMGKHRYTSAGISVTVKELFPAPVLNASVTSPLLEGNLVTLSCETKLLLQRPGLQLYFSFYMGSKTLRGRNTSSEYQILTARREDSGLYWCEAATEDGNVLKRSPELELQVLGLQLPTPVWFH

B1: IL6R-2B171/IL6R-L (antibody, human IgG1)
heavy: QVQLQESGPGLVKPSETLSLTCAVSGHSISHDHAWSWVRQPPGEGLEWIGFISYSGITNYNPSLQGRVTISRDNSKNTLYLQMNSLRAEDTAVYYCARSLARTTAMDYWGEGTLVTVSSASTKGPSVFPLAPSSKSTSGGTAALGCLVKDYFPEPVTVSWNSGALTSGVHTFPAVLQSSGLYSLSSVVTVPSSSLGTQTYICNVNHKPSNTKVDKKVEPKSCDKTHTCPPCPAPELLGGDSVFLFPPKPKDTLMISRTPEVTCVVVDVSHEDPEVKFNWYVDGVEVHNAKTKPREEQYNSTYRVVSVLTVLHQDWLNGKEYKCKLSNKALPAPIEKTISKAKGQPREPQVYTLPPSRDELTKNQVSLTCLVKGFYPSDIAVEWESNGQPENNYKTTPPVLDSDGSFFLYSKLTVDKSRWQQGNVFSCSVMHEALHNHYTQESLSLSP
light: DIQMTQSPSSLSASVGDRVTITCRASQDISSYLNWYQQKPGKAPKLLIYYTSRLHSGVPSRFSGSGSGTDFTFTISSLQPEDIATYYCQQGNTLPYTFGQGTKVEIK
notes: IgG1; Fc variant of IL6R-B3; copies: 2 + 2
As for B1, the “KD(IIaH)/KD(IIb)” value with FcγRIIb [1] turned out to be 31.8. Moreover, the “KD(IIb) of the parent polypeptide/KD(IIb) of altered polypeptide” value (from here on “KD(IIb) … of altered polypeptide”) with FcγRIIb [2] was 2.9 fold. The Kd was determined as 1.1 µM with FcγRIIb [3]; 16 µM in the test with FcγRIIa type R; 57 µM in the test with FcγRIIIa type V; 34 µM with FcγRIIa type H; 0.0091 µM with FcγRIa. The “KD(IIaR)/KD(IIb)” value with FcγRIIb [4] came out at 15.

B2: IL6R-BP116/IL6R-L (antibody, human IgG1)
heavy: QVQLQESGPGLVKPSETLSLTCAVSGHSISHDHAWSWVRQPPGEGLEWIGFISYSGITNYNPSLQGRVTISRDNSKNTLYLQMNSLRAEDTAVYYCARSLARTTAMDYWGEGTLVTVSSASTKGPSVFPLAPSSKSTSGGTAALGCLVKDYFPEPVTVSWNSGALTSGVHTFPAVLQSSGLYSLSSVVTVPSSSLGTQTYICNVNHKPSNTKVDKKVEPKSCDKTHTCPPCPAPELLGGDSVFLFPPKPKDTLMISRTPEVTCVVVDVSHEDPEVKFNWYVDGVEVHNAKTKPREEQYNSTYRVVSVLTVLHQDWLNGKEYKCKVSNTALPAPIEKTISKAKGQPREPQVYTLPPSRDELTKNQVSLTCLVKGFYPSDIAVEWESNGQPENNYKTTPPVLDSDGSFFLYSKLTVDKSRWQQGNVFSCSVMHEALHNHYTQESLSLSP
light: DIQMTQSPSSLSASVGDRVTITCRASQDISSYLNWYQQKPGKAPKLLIYYTSRLHSGVPSRFSGSGSGTDFTFTISSLQPEDIATYYCQQGNTLPYTFGQGTKVEIK
notes: as for B1
Regarding B2, in the test with FcγRIIb [1], the “KD(IIaH)/KD(IIb)” value is 48.2. Moreover, the “KD(IIb) … of altered polypeptide” value with FcγRIIb [2] was 2.8 fold. For the same molecule, the Kd with FcγRIIb [3] stood at 1.1 µM; with FcγRIIa type R, 15 µM; with FcγRIIIa type V, 72 µM; in the test with FcγRIIa type H, 54 µM; with FcγRIa, 0.0026 µM. Further, in the test with FcγRIIb [4], the “KD(IIaR)/KD(IIb)” value came out at 13.3.

B3: IL6R-BP100/IL6R-L (antibody, human IgG1)
heavy: QVQLQESGPGLVKPSETLSLTCAVSGHSISHDHAWSWVRQPPGEGLEWIGFISYSGITNYNPSLQGRVTISRDNSKNTLYLQMNSLRAEDTAVYYCARSLARTTAMDYWGEGTLVTVSSASTKGPSVFPLAPSSKSTSGGTAALGCLVKDYFPEPVTVSWNSGALTSGVHTFPAVLQSSGLYSLSSVVTVPSSSLGTQTYICNVNHKPSNTKVDKKVEPKSCDKTHTCPPCPAPELLGGDSVFLFPPKPKDTLMISRTPEVTCVVVDVAHEDPEVKFNWYVDGVEVHNAKTKPREEQYNSTYRVVSVLTVLHQDWLNGKEYKCKVSNKALPAPIEKTISKAKGQPREPQVYTLPPSRDELTKNQVSLTCLVKGFYPSDIAVEWESNGQPENNYKTTPPVLDSDGSFFLYSKLTVDKSRWQQGNVFSCSVMHEALHNHYTQESLSLSP
light: DIQMTQSPSSLSASVGDRVTITCRASQDISSYLNWYQQKPGKAPKLLIYYTSRLHSGVPSRFSGSGSGTDFTFTISSLQPEDIATYYCQQGNTLPYTFGQGTKVEIK
notes: as for B1
Take B3: in the test with FcγRIIb [1], the “KD(IIaH)/KD(IIb)” value was 42.6. The “KD(IIb) … of altered polypeptide” value with FcγRIIb [2] amounted to 2.9 fold. Also, the Kd came out at 1.1 µM with FcγRIIb [3]; 7.8 µM with FcγRIIa type R; 59 µM with FcγRIIIa type V; 46 µM in the test with FcγRIIa type H; 0.0011 µM in the test with FcγRIa. The “KD(IIaR)/KD(IIb)” value with FcγRIIb [4] amounted to 7.3.

B4: IL6R-BP103/IL6R-L (antibody, human IgG1)
heavy: QVQLQESGPGLVKPSETLSLTCAVSGHSISHDHAWSWVRQPPGEGLEWIGFISYSGITNYNPSLQGRVTISRDNSKNTLYLQMNSLRAEDTAVYYCARSLARTTAMDYWGEGTLVTVSSASTKGPSVFPLAPSSKSTSGGTAALGCLVKDYFPEPVTVSWNSGALTSGVHTFPAVLQSSGLYSLSSVVTVPSSSLGTQTYICNVNHKPSNTKVDKKVEPKSCDKTHTCPPCPAPELLGGDSVFLFPPKPKDTLMISRTPEVTCVVVDVVHEDPEVKFNWYVDGVEVHNAKTKPREEQYNSTYRVVSVLTVLHQDWLNGKEYKCKVSNKALPAPIEKTISKAKGQPREPQVYTLPPSRDELTKNQVSLTCLVKGFYPSDIAVEWESNGQPENNYKTTPPVLDSDGSFFLYSKLTVDKSRWQQGNVFSCSVMHEALHNHYTQESLSLSP
light: DIQMTQSPSSLSASVGDRVTITCRASQDISSYLNWYQQKPGKAPKLLIYYTSRLHSGVPSRFSGSGSGTDFTFTISSLQPEDIATYYCQQGNTLPYTFGQGTKVEIK
notes: as for B1
In the case of B4, the “KD(IIaH)/KD(IIb)” value with FcγRIIb [1] is 71.5. For the same molecule, the “KD(IIb) … of altered polypeptide” value with FcγRIIb [2] was 2.5 fold. The Kd with FcγRIIb [3] was determined as 1.2 µM; with FcγRIIa type R, 11 µM; with FcγRIIIa type V, 110 µM; with FcγRIIa type H, 88 µM; with FcγRIa, 0.035 µM. The “KD(IIaR)/KD(IIb)” value with FcγRIIb [4] stood at 9.

B5: IL6R-2B172/IL6R-L (antibody, human IgG1)
heavy: QVQLQESGPGLVKPSETLSLTCAVSGHSISHDHAWSWVRQPPGEGLEWIGFISYSGITNYNPSLQGRVTISRDNSKNTLYLQMNSLRAEDTAVYYCARSLARTTAMDYWGEGTLVTVSSASTKGPSVFPLAPSSKSTSGGTAALGCLVKDYFPEPVTVSWNSGALTSGVHTFPAVLQSSGLYSLSSVVTVPSSSLGTQTYICNVNHKPSNTKVDKKVEPKSCDKTHTCPPCPAPELLGGDSVFLFPPKPKDTLMISRTPEVTCVVVDVSHEDPEVKFNWYVDGVEVHNAKTKPREEQYNSTYRVVSVLTVLHQDWLNGKEYKCKMSNKALPAPIEKTISKAKGQPREPQVYTLPPSRDELTKNQVSLTCLVKGFYPSDIAVEWESNGQPENNYKTTPPVLDSDGSFFLYSKLTVDKSRWQQGNVFSCSVMHEALHNHYTQESLSLSP
light: DIQMTQSPSSLSASVGDRVTITCRASQDISSYLNWYQQKPGKAPKLLIYYTSRLHSGVPSRFSGSGSGTDFTFTISSLQPEDIATYYCQQGNTLPYTFGQGTKVEIK
notes: as for B1
Take B5: in the test with FcγRIIb [1], the “KD(IIaH)/KD(IIb)” value was 27.3. Moreover, in the test with FcγRIIb [2], the “KD(IIb) … of altered polypeptide” value turned out to be 4 fold. Moreover, the Kd with FcγRIIb [3] was 0.77 µM; with FcγRIIa type R it was 6.1 µM; with FcγRIIIa type V, 48 µM; with FcγRIIa type H it was 21 µM; with FcγRIa it was 0.003 µM. For the same molecule, the “KD(IIaR)/KD(IIb)” value with FcγRIIb [4] was determined as 8.

B6: IL6R-BP102/IL6R-L (antibody, human IgG1)
heavy: QVQLQESGPGLVKPSETLSLTCAVSGHSISHDHAWSWVRQPPGEGLEWIGFISYSGITNYNPSLQGRVTISRDNSKNTLYLQMNSLRAEDTAVYYCARSLARTTAMDYWGEGTLVTVSSASTKGPSVFPLAPSSKSTSGGTAALGCLVKDYFPEPVTVSWNSGALTSGVHTFPAVLQSSGLYSLSSVVTVPSSSLGTQTYICNVNHKPSNTKVDKKVEPKSCDKTHTCPPCPAPELLGGDSVFLFPPKPKDTLMISRTPEVTCVVVDVQHEDPEVKFNWYVDGVEVHNAKTKPREEQYNSTYRVVSVLTVLHQDWLNGKEYKCKVSNKALPAPIEKTISKAKGQPREPQVYTLPPSRDELTKNQVSLTCLVKGFYPSDIAVEWESNGQPENNYKTTPPVLDSDGSFFLYSKLTVDKSRWQQGNVFSCSVMHEALHNHYTQESLSLSP
light: DIQMTQSPSSLSASVGDRVTITCRASQDISSYLNWYQQKPGKAPKLLIYYTSRLHSGVPSRFSGSGSGTDFTFTISSLQPEDIATYYCQQGNTLPYTFGQGTKVEIK
notes: as for B1
B6: in the test with FcγRIIb [1], the “KD(IIaH)/KD(IIb)” value stood at 67.6. In the test with FcγRIIb [2], the “KD(IIb) … of altered polypeptide” value stood at 3.4 fold. Moreover, the Kd with FcγRIIb [3] turned out to be 0.9 µM; with FcγRIIa type R, 8.4 µM; with FcγRIIIa type V, 82 µM; with FcγRIIa type H, 61 µM; with FcγRIa, 0.0082 µM. Besides, the “KD(IIaR)/KD(IIb)” value with FcγRIIb [4] turned out to be 9.4.
